The target in assay [1] is TRF1 TRFH (TRF homology) domain. As to the kind of experiment: crystal structure; purified TRF1 TRFH-PinX1TBM complex, 2.7 Å.
Assay [2] addresses T1, 3×Flag-TERT (purified human telomerase) (human, UniProt O14746 1-1132).
T1 construct: TERT, the protein subunit of human telomerase; Purified as telomerase; also called purified telomerase; source: human telomerase, purified
Briefly: pull-down; GST-PinX1-C (132-328) captured by 3×Flag-TERT (MBP-3×Flag as control), Western blot. As to conditions: both partners purified. On the technique in general: In western blotting, separated proteins are transferred to a membrane and probed.

Assay [3] concerns the target T1, 3×Flag-TERT (purified human telomerase). As to the kind of experiment: pull-down; 3×Flag-TERT (purified telomerase) captured by GST-PinX1 constructs (GST as control), silver staining and Western blot. The conditions noted are these: both partners purified.

T1 sequence (O14746 whole entry): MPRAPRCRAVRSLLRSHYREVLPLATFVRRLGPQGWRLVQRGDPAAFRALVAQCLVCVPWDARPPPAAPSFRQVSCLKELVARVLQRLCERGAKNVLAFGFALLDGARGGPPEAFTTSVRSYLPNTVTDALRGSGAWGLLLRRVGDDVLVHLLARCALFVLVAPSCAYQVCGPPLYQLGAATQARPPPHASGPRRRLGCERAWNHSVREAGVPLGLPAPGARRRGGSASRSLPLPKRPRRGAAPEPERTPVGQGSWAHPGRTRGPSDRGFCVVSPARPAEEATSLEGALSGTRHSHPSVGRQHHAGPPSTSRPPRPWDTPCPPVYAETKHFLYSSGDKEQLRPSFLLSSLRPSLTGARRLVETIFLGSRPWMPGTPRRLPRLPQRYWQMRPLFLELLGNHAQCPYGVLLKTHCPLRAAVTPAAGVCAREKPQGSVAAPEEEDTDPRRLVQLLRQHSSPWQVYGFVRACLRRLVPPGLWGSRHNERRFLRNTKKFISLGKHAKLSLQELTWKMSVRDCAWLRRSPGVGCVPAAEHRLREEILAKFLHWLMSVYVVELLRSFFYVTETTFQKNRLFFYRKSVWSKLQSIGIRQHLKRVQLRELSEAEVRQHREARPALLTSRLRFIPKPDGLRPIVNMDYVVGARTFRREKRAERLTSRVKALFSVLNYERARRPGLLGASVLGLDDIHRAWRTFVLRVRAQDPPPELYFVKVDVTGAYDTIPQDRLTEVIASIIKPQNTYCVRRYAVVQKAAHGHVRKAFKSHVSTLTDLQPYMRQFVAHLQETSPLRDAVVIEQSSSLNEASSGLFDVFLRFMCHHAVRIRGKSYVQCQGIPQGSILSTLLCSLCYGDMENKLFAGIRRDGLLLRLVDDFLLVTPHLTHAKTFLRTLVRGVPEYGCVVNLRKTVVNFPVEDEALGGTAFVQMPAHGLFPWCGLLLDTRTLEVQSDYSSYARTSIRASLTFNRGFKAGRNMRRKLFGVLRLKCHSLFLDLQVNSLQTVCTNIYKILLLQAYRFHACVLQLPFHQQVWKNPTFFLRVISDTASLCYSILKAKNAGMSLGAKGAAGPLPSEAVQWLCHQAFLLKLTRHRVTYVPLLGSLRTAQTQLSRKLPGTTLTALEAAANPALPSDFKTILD

Broadly, the stoichiometry N is a count of units in the complex or per binding partner. Turning to “TRF1 TRFH (TRF homology) domain (domain or fragment)”, in assay [1], the stoichiometry N is 2.

B1: GST-PinX1(132-328) (domain or fragment, UniProt Q96BK5 132-328, looked up)
chain: GKDLSSRSKTDLDCIFGKRQSKKTPEGDASPSTPEENETTTTSAFTIQEYFAKRMAALKNKPQVPVPGSDISETQVERKRGKKRNKEATGKDVESYLQPKAKRHTEGKPERAEAQERVAKKKSAPAEEQLRGPCWDQSSKASAQDAGDHVQPPEGRDFTLKPKKRRGKKKLQKPVEIAEDATLEETLVKKKKKKDSK
notes: PinX1 residues 132-328; also called GST-PinX1-C (132–328); CTD (C-terminal domain)
In the case of B1, in assay [2], the binding result is “binds”.

B2: GST-PinX1(203-328) (domain or fragment, UniProt Q96BK5 203-328, looked up)
chain: SETQVERKRGKKRNKEATGKDVESYLQPKAKRHTEGKPERAEAQERVAKKKSAPAEEQLRGPCWDQSSKASAQDAGDHVQPPEGRDFTLKPKKRRGKKKLQKPVEIAEDATLEETLVKKKKKKDSK
notes: PinX1 residues 203-328 (TID)
As to B2, the binding result in assay [3] is on record as “binds”.
